From article PMC11224324
pKd: −log10 of the molar value. One block for each substance: values may come before it.

What was measured:
[1] = target: REC_(hHK3), REC-1 domain of hybrid histidine kinase hHK3 (group III, ortholog of Nik1) from Chaetomium thermophilum (Chaetomium thermophilum); assay: SEC-MALS; 20 µg of protein injected on PROTEIN KW-403 4F (Shodex); 50 mM Hepes pH 7, 150 mM NaCl; 0.35 ml/min; without and with PAM or BeF3-
[2] = target: Histag-Ct_HPt (residues 9-175), labelled with Red-Tris NTA dye (Chaetomium thermophilum); assay: MST; Histag-Ct_HPt labelled with Red-Tris NTA dye held constant; REC-1 domain in sixteen two-fold dilutions from 1 mM (0.32 mM for REC_hHK6); PBS + 0.05% Tween-20; medium MST power; hyperbolic fit, 1:1 model; mean of two titrations
[3] = target: Ct_HPt, histidine phosphotransfer protein from Chaetomium thermophilum (residues 9-175), Streptag removed (Chaetomium thermophilum)
Ct_HPt, histidine phosphotransfer protein from Chaetomium thermophilum (residues 9-175), Streptag removed (Chaetomium thermophilum), sequence (main, as listed by the source): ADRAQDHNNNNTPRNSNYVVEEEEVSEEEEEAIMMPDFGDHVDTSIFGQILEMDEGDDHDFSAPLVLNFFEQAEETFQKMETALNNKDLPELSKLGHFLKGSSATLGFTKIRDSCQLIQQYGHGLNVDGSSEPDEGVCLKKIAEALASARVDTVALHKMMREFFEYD

[4] = target: REC_(hHK6), REC-1 domain of hybrid histidine kinase hHK6 (group VI, ortholog of Sln1) from Chaetomium thermophilum (Chaetomium thermophilum); assay: SEC-MALS; 20 µg of protein injected on PROTEIN KW-403 4F (Shodex); 50 mM Hepes pH 7, 150 mM NaCl; 0.35 ml/min; without and with PAM or BeF3-

Substance: REC_(hHK3), REC-1 domain of hybrid histidine kinase hHK3 (group III, ortholog of Nik1) from Chaetomium thermophilum (domain or fragment)
stoichiometry N [1]: 3

Substance: REC_(hHK11), REC-1 domain of hybrid histidine kinase hHK11 (group XI) from Chaetomium thermophilum (domain or fragment)
phosphorylated Ct HPt (Ct HPt~P) on native gel after 30 min with REC-1 domain pre-phosphorylated with PAM (control of Ct HPt with PAM alone ~15%; none with AcP) [3]: 35%

Substance: REC_(hHK4), REC-1 domain of hybrid histidine kinase hHK4 (group IV) from Chaetomium thermophilum (domain or fragment)
phosphorylated Ct HPt (Ct HPt~P) on native gel after 30 min with REC-1 domain pre-phosphorylated with PAM (control of Ct HPt with PAM alone ~15%; none with AcP) [3]: 35%

Now from value to substance:

pKd [2]: 4.03
Substance: REC_(hHK5), REC-1 domain of hybrid histidine kinase hHK5 (group V) from Chaetomium thermophilum (domain or fragment)

stoichiometry N [4]: 2
Substance: REC_(hHK6), REC-1 domain of hybrid histidine kinase hHK6 (group VI, ortholog of Sln1) from Chaetomium thermophilum (domain or fragment)
